Here are results for seven molecules from US20190328900A1 (GlaxoSmithKline, published 2019).

“And” between values parts separate entries of the source, which are not always exact repeats. Equal entries are not always repeated.

B1: VRC01-SA antibody-drug conjugate (antibody, human IgG1, V domains shown)
VH: QVQLVQSGGQMKKPGESMRISCRASGYEFIDCTLNWIRLAPGKRPEWMGWLKPRGGAVNYARPLQGRVTMTRDVYSDTAFLELRSLTVDDTAVYFCTRGKNCDYNWDFEHWGRGTPVIVSS
VL: EIVLTQSPGTLSLSPGETAIISCRTSQYGSLAWYQQRPGQAPRLVIYSGSTRAAGIPDRFSGSRWGPDYNLTISNLESGDFGVYYCQQYEFFGQGTKVQVDI
modifications: payload-linker SA conjugated to lysines; sites and chain not stated; payload-linker SA (short linker payload A, succinimidyl ester) conjugated to lysines; sites and chain not stated; MS DAR 3.0
B2: VRC01-LB antibody-drug conjugate (antibody, human IgG1, V domains shown)
VH: QVQLVQSGGQMKKPGESMRISCRASGYEFIDCTLNWIRLAPGKRPEWMGWLKPRGGAVNYARPLQGRVTMTRDVYSDTAFLELRSLTVDDTAVYFCTRGKNCDYNWDFEHWGRGTPVIVSS
VL: EIVLTQSPGTLSLSPGETAIISCRTSQYGSLAWYQQRPGQAPRLVIYSGSTRAAGIPDRFSGSRWGPDYNLTISNLESGDFGVYYCQQYEFFGQGTKVQVDI
modifications: payload-linker LB conjugated to lysines; sites and chain not stated; payload-linker LB (long linker payload B, succinimidyl ester) conjugated to lysines; sites and chain not stated; MS DAR 3.8
B3: VRC01-LA antibody-drug conjugate (antibody, human IgG1, V domains shown)
VH: QVQLVQSGGQMKKPGESMRISCRASGYEFIDCTLNWIRLAPGKRPEWMGWLKPRGGAVNYARPLQGRVTMTRDVYSDTAFLELRSLTVDDTAVYFCTRGKNCDYNWDFEHWGRGTPVIVSS
VL: EIVLTQSPGTLSLSPGETAIISCRTSQYGSLAWYQQRPGQAPRLVIYSGSTRAAGIPDRFSGSRWGPDYNLTISNLESGDFGVYYCQQYEFFGQGTKVQVDI
modifications: payload-linker LA conjugated to lysines; sites and chain not stated; payload-linker LA (long linker payload A, succinimidyl ester) conjugated to lysines; sites and chain not stated; MS DAR 3.4
B4: VRC01-SB antibody-drug conjugate (antibody, human IgG1, V domains shown)
VH: QVQLVQSGGQMKKPGESMRISCRASGYEFIDCTLNWIRLAPGKRPEWMGWLKPRGGAVNYARPLQGRVTMTRDVYSDTAFLELRSLTVDDTAVYFCTRGKNCDYNWDFEHWGRGTPVIVSS
VL: EIVLTQSPGTLSLSPGETAIISCRTSQYGSLAWYQQRPGQAPRLVIYSGSTRAAGIPDRFSGSRWGPDYNLTISNLESGDFGVYYCQQYEFFGQGTKVQVDI
modifications: payload-linker SB conjugated to lysines; sites and chain not stated; payload-linker SB (short linker payload B, succinimidyl ester) conjugated to lysines; sites and chain not stated; MS DAR 3.9
B5: VRC01 broadly neutralizing antibody (antibody, human IgG1, V domains shown)
VH: QVQLVQSGGQMKKPGESMRISCRASGYEFIDCTLNWIRLAPGKRPEWMGWLKPRGGAVNYARPLQGRVTMTRDVYSDTAFLELRSLTVDDTAVYFCTRGKNCDYNWDFEHWGRGTPVIVSS
VL: EIVLTQSPGTLSLSPGETAIISCRTSQYGSLAWYQQRPGQAPRLVIYSGSTRAAGIPDRFSGSRWGPDYNLTISNLESGDFGVYYCQQYEFFGQGTKVQVDI
B6: VRC01-LA-SB dual-payload antibody-drug conjugate (antibody, human IgG1, V domains shown)
VH: QVQLVQSGGQMKKPGESMRISCRASGYEFIDCTLNWIRLAPGKRPEWMGWLKPRGGAVNYARPLQGRVTMTRDVYSDTAFLELRSLTVDDTAVYFCTRGKNCDYNWDFEHWGRGTPVIVSS
VL: EIVLTQSPGTLSLSPGETAIISCRTSQYGSLAWYQQRPGQAPRLVIYSGSTRAAGIPDRFSGSRWGPDYNLTISNLESGDFGVYYCQQYEFFGQGTKVQVDI
modifications: payload-linkers LA and SB conjugated to lysines; sites and chain not stated; payload-linkers LA and SB conjugated to lysines; sites and chain not stated; MS DAR 1.6 (LA) and 1.3
B7: VRC01-LA-LB dual-payload antibody-drug conjugate (antibody, human IgG1, V domains shown)
VH: QVQLVQSGGQMKKPGESMRISCRASGYEFIDCTLNWIRLAPGKRPEWMGWLKPRGGAVNYARPLQGRVTMTRDVYSDTAFLELRSLTVDDTAVYFCTRGKNCDYNWDFEHWGRGTPVIVSS
VL: EIVLTQSPGTLSLSPGETAIISCRTSQYGSLAWYQQRPGQAPRLVIYSGSTRAAGIPDRFSGSRWGPDYNLTISNLESGDFGVYYCQQYEFFGQGTKVQVDI
modifications: payload-linkers LA and LB conjugated to lysines; sites and chain not stated; payload-linkers LA and LB conjugated to lysines; sites and chain not stated; MS DAR 1.6 (LA) and 1.2 (LB)

The target of one experiment is T1, HIV gp160 envelope glycoprotein on pseudotyped virus (clone not named) (HIV). The experiment can be described thus: cell-based or functional assay.
For B1, the “IC50 (N = 1), pseudotyped virus (PSV) infection, luciferase” value (from here on “IC50 (N = 1), pseudotyped virus”) is ~2.7 nM and 0.418 µg/mL; the “IC50 (N = 2), pseudotyped virus (PSV) infection, luciferase” value (“IC50 (N = 2), pseudotyped virus” below) was 0.226 µg/mL and ~1.5 nM.
As to B2, the “IC50 (N = 1), pseudotyped virus” value is 0.526 µg/mL and ~3.4 nM; the “IC50 (N = 2), pseudotyped virus” value is around 1.9 nM.
Take B3: the “IC50 (N = 1), pseudotyped virus” value is 0.0753 µg/mL and ~0.5 nM; the “IC50 (N = 2), pseudotyped virus” value is 0.0413 µg/mL and ~0.27 nM.
Take B4: the “IC50 (N = 1), pseudotyped virus” value was 0.617 µg/mL and ~4 nM; the “IC50 (N = 2), pseudotyped virus” value stood at 0.772 µg/mL.
Consider B5, for which the “IC50 (N = 1), pseudotyped virus” value was around 667 nM and the “IC50 (N = 2), pseudotyped virus” value was around 667 nM.

In another experiment the target is T1, HIV gp160 envelope glycoprotein on …. The experiment can be described thus: cell-based or functional assay. The source holds these as a separate data set.
For the molecule B6, the “IC50 (N = 1), pseudotyped virus” value is 0.104 µg/mL and ~0.7 nM; the “IC50 (N = 2), pseudotyped virus” value is 0.106 µg/mL and ~0.7 nM.
As to B7, the “IC50 (N = 1), pseudotyped virus” value was 0.154 µg/mL; the “IC50 (N = 2), pseudotyped virus” value was 0.107 µg/mL and ~0.7 nM.
